Data: the supplement of paper PMC9942255
Values joined by “and” are separate entries in the source; they are usually repeats but may differ in a detail not shown here. Equal values may be shown once.

Tested on: Bacillus subtilis DB104 (SP-AmyQ fusion secretion)
Assay: AmyQ secretion efficiency, weighted average sort bin (1 = best secretion, 10 = worst) (bin number (weighted average, 1-10)); higher = lower secretion efficiency
Method in brief: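 The secretion score was taken as the read-frequency-weighted mean bin number, normalised to beads per bin, with low-abundance sequences excluded. Bins came from large-particle flow cytometry sorting of occupied alginate beads (~65 nL, about 0.3 cells each, with fluorescein-starch) into 10 equally populated groups by green/red fluorescence ratio after about 13 h at room temperature and nile red staining. The cells were a B. subtilis DB104 library with mature AmyQ fused to designed signal peptides, integrated at amyE, and each bin's amplicons were Illumina-sequenced.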

Sequence | AmyQ secretion efficiency
MRKKCSTCQWRLVLLLSCLSGKSAYAATS | 5.76
MSMVMLATALFLGLTPAGANAADL | 5.37
MPTKKKVMKCLAVTLVFGSMSFPTLTNSGGFKE | 7.16
MRKKRTSNFNMIVITCVMAASLTLGSLLPAGYATAKED | 3.08
MRPVFPLILSAVLFLSCFFIAGATEASASKR | 3.68
MRKKTKNRLISSVLSTVVISSLLFPGAAGCSSK | 5.98
MKKRLIQVMIMFTLLLRRKRRRRADAADS | 8.45
MLKKKWMVGLLAGCLAGFSYNAFATEN | 5.96
MLKKIALTLCPAIVGSLLFFTAGASAHVS | 3.12
MKNMSCKLVVSVTLFFSFLTIGPLYHAQNS | 5.32
MKKIKKRKFMFGLVMGFSQFQPSTVFAADK | 7.57
MNRRKILLSSALSLGMLVSAAPVLATSS | 2.39
MKKTIMSFKRKKKKSTTAFGAHASAKEI | 6.45
MKRKRFLIGAGVAAVILSGWFIADHQTHSQEM | 5.04
MKVPKTMLLSTAAGLLLSLTATSVSSHYV | 7.63
MRPVFPLILSAVLFLSCFFGARQTEASCSKR | 3.44
MNFKKTVVSALSISALALSVSGVASSHEI | 5.89
MLKKKWMVGLLAGCLAAGGFSYNAFTTEN | 6.95
MFGMSTISLLIIFLLASAVLAKPIEAHTV | 2.54
MIAYFGKCGYKYGRTRLGVLFGMQQANHG | 8.61
MKVLLSALLLLLFARKKKKRASGKKL | 6.15
MPYLKRVLLLLVTGLFMSLFAVTATPSAQTG | 4.75

Sequence | AmyQ secretion efficiency
MLKKKWMVGLLAGCLAAGGFSYNRFATEN | 6.33
MRKKLKWLSFLLGFIILLFLFTFGFSNNDS | 5.5
MKSKGSIMACLILFSFTITTFINTETISHFSN | 7.54
MKKKNSISSLNMLAAGLTASAIVGTTLVVTPAEAATI | 2.17
MKKRKITIAMLILAGIALFVFISPLKSHKT | 6.94
MKKLLAAGIIGLLTVSIASPSFKAEK | 5.02
MKWMCKKCCKKVLLAGGAAQAEAV | 7.14
MGLKKRVSMFLVALTMCGGLFVTPAKAVKT | 3.29
MKKRRLIGFLVLVPALIMSGITLIEANKK | 6.64
MKLAKRVSALTPSTTLAITAKVKEL | 6.33
MKKIVSILFMFGLVMGFSQFQPSTVFAAED | 2.13
MKKSQYFKRRKCFFVLFSVHPIAAAAADS | 9.07
MRKKRRRSLITLGLASVIGTSSFLIPFTSKTASAETL | 1.75
MKLSVKIAGVLTVAAAAMTAKMYCTAKGN | 7.19
MKRIRIPMTLALGAALTIAPLSFVSAEEN | 2.58
MKKSQYFIVFICFFVLFSVHPIAQAAADS | 4.87
MKLSVKIAGVLTVAAAAMTAKMYATAADD | 6.81
MKKWMITIAMLKRRRIALFVFISPLKSHKT | 7.36
MNMSITYSLLALLAVVAFAFTDSSKAKAAEA | 2.51
MKKKLAAGLTASAIVGTTLVVTPIEAATI | 2.11
MKLAKRVSALTPSTTLAITAKMKEL | 6.79
MKVCQKSIVRFLVSLIIGTFVISVPFMANARKR | 3.31

Sequence | AmyQ secretion efficiency
MKQGKFSVFLILLLMLAPKEKAEAASS | 2.23
MKVLLSALLLLLFAFEPSISGKKL | 7.18
MKKTIMSFVAVAALSTTAFQPHASAKEI | 2.23
MKKRFSLIMMTGLLFGLTSPDEKAFAAEK | 2.56
MLCKRKRLFSAIASFPVSAQAKDQ | 7.61
MKKRRLLAAGIIGLLTVSIASPSFAAEK | 2.29 and 2.73
MKKCLAVTLVFGSMSFPTLTNSGGFKE | 4.92
MPYLKRLSIVLLLLVTGLFMSLFAVTATASAQTG | 1.6
MKLSVKIAGVLTVAAAAMTAKMYDTAKGN | 4.44
MIIWIYVVLVLSIAGIGGFSVHAASS | 7.11
MKLSVKTRQKTTVAAAAMTAKMYATAKGN | 7.48
MKKTIMSFVAVAALSTTAFGAHASAAKR | 2.03
MLKKKWMVGLLAGCLAAGGFSYNAFFTEN | 6.5
MKKKLAAGLTASAIVGTTLVVTPAERATI | 5.86
MTMLRKIIGWILLLCIIPLFAFTVIASTKEV | 7.17
MKKRITLLALLAVVAFAFTDSSKAKAAEA | 3.06
MKNMSKLVVSVTLFFSFLTIGPLAHAQNS | 1.41
MKRQRLLVSLRVWMVFLMNWVTPDRKTAAAAVY | 6.95
MKRMIRTLPLLIVCLAFSSFSASARAASE | 2.17
MKRTWNVCLIALLMVLLVAIFVTSPFHAEAKKP | 2.11
